Measurements as given in the supplement of paper PMC10126150.
± gives the standard deviation of the averaged measurements.

System: ATP
Test: switch fluorescence ratio, 500 uM ATP over buffer (Cy3 cluster intensity, sum of 5 cycles each) (fold (ratio)); higher = stronger signal-on switching upon ATP binding; sequences stand for … in TCGTCGGCAGCGTCAGATGTGTATAAGAGACAGTTTTTTTTTTTTTTTTTTTTTTTTT…TC
Conditions: aptamer strand: ATP DNA aptamer (quencher-CACCTGGGGGAGTATTGCGGAGGAAGG + anchor), 100 nM annealed; ATP concentration: 500 uM
Method in brief: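 Clusters carrying Cy3-labelled switching strands on a modified Illumina MiSeq flow-cell were annealed to 100 nM quencher-labelled ATP aptamer and imaged in selection buffer. They were imaged again after 15 min with 500 uM ATP at 22 °C, over five buffer/ATP cycles with NaOH stripping and re-annealing in between. For each cluster, the fluorescence ratio is the summed Cy3 intensity of the target cycles divided by that of the buffer cycles, averaged per switch-domain sequence. Clusters outside 100-1000 RFU were left out.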
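Note: ATP exposure 15 min at 22 °C before imaging.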

With GCATTATTCG the switch fluorescence ratio was 1.059 ± 0.0079.
In the case of GCATTATTTG, the switch fluorescence ratio is reported as 1.05 ± 0.02.
In the case of GCATTCAGGG, the switch fluorescence ratio is reported as 1.09 ± 0.14.
Sequence GCATTCGGCT has a switch fluorescence ratio of 1.04 ± 0.069.
GCATTCGGTT showed a switch fluorescence ratio of 0.972 ± 0.039.
Work on GCATTCTCGT yielded a switch fluorescence ratio of 1.029 ± 0.0021.
For GCATTGAGGG, the switch fluorescence ratio was 1.04 ± 0.047.
GCATTGGTAT showed a switch fluorescence ratio of 0.981 ± 0.011.
GCATTGTAGG was tested, and the switch fluorescence ratio was 0.972 ± 0.041.
In the case of GCATTTCTTC, the switch fluorescence ratio is reported as 1.03 ± 0.04.
GCATTTGGTC was tested, and the switch fluorescence ratio was 1.01 ± 0.023.
GCATTTTGAA was tested, and the switch fluorescence ratio was 1.02 ± 0.026.
GCCAAACGGG showed a switch fluorescence ratio of 1.13 ± 0.16.
Work on GCCAAAGCGG yielded a switch fluorescence ratio of 0.997 ± 0.014.
With GCCAACAGTG the switch fluorescence ratio was 1.32 ± 0.12.
Sequence GCCAATGGGG has a switch fluorescence ratio of 0.989 ± 0.026.
For GCCAATTAAT, the switch fluorescence ratio was 1.01 ± 0.012.
In the case of GCCACAAATT, the switch fluorescence ratio is reported as 1.01 ± 0.033.
In the case of GCCAGCGTCC, the switch fluorescence ratio is reported as 1.62 ± 0.83.
In the case of GCCAGGCATT, the switch fluorescence ratio is reported as 0.989 ± 0.05.
Work on GCCAGTGCTG yielded a switch fluorescence ratio of 1.017 ± 0.0069.
With GCCATAATTA the switch fluorescence ratio was 0.981 ± 0.018.
Work on GCCATAGGAG yielded a switch fluorescence ratio of 0.987 ± 0.031.
GCCATATGTG showed a switch fluorescence ratio of 1.02 ± 0.015.
In the case of GCCATGGTTG, the switch fluorescence ratio is reported as 1.04 ± 0.067.
Work on GCCATGTGAA yielded a switch fluorescence ratio of 1.004 ± 0.0084.
Work on GCCATTTATT yielded a switch fluorescence ratio of 0.977 ± 0.024.
Work on GCCCAATAAG yielded a switch fluorescence ratio of 1.03 ± 0.025.
GCCCATGGGT was tested, and the switch fluorescence ratio was 1.07 ± 0.12.
For GCCCATTGTG, the switch fluorescence ratio was 1.2 ± 0.072.
For GCCCCCTTCG, the switch fluorescence ratio was 1.08 ± 0.065.
Work on GCCCCGGGGA yielded a switch fluorescence ratio of 1.04 ± 0.011.
GCCCCGGGGT showed a switch fluorescence ratio of 1.03 ± 0.056.
With GCCCGGAGAC the switch fluorescence ratio was 1.71 ± 0.025.
Work on GCCCGGATTT yielded a switch fluorescence ratio of 1 ± 0.047.
GCCCGGGCGC gave a switch fluorescence ratio of 1 ± 0.014.
GCCCGTCCTG showed a switch fluorescence ratio of 1.04 ± 0.015.
For GCCCTATAGG, the switch fluorescence ratio was 1.01 ± 0.011.
Work on GCCCTGATGC yielded a switch fluorescence ratio of 1.01 ± 0.051.
For GCCCTGCATG, the switch fluorescence ratio was 1.01 ± 0.052.
GCCCTTAGCG was tested, and the switch fluorescence ratio was 1.06 ± 0.073.
Sequence GCCGAAGGGT has a switch fluorescence ratio of 1.02 ± 0.03.
Sequence GCCGAATTTG has a switch fluorescence ratio of 1.028 ± 0.0068.
GCCGCAGGTC showed a switch fluorescence ratio of 1.23 ± 0.083.
GCCGCAGTTT was tested, and the switch fluorescence ratio was 1.31 ± 0.18.
Work on GCCGCCGTGT yielded a switch fluorescence ratio of 0.983 ± 0.031.
For GCCGGAGTGG, the switch fluorescence ratio was 0.982 ± 0.024.
With GCCGGATCTT the switch fluorescence ratio was 1.01 ± 0.02.
GCCGGATT showed a switch fluorescence ratio of 1.01 ± 0.04.
GCCGGGAGGA showed a switch fluorescence ratio of 1.01 ± 0.032.
Sequence GCCGGGAGGG has a switch fluorescence ratio of 0.985 ± 0.025.
For GCCGGGATCG, the switch fluorescence ratio was 0.97 ± 0.03.
GCCGGGCAAC showed a switch fluorescence ratio of 0.995 ± 0.037.
In the case of GCCGGGCCGG, the switch fluorescence ratio is reported as 0.9666 ± 0.0055.
Work on GCCGGGGTTA yielded a switch fluorescence ratio of 0.9966 ± 0.0088.
GCCGGTTAGA gave a switch fluorescence ratio of 0.998 ± 0.03.
For GCCGTAGCTG, the switch fluorescence ratio was 1.02 ± 0.037.
Work on GCCGTAGTCG yielded a switch fluorescence ratio of 1.03 ± 0.042.
GCCGTATGCG gave a switch fluorescence ratio of 0.992 ± 0.019.
GCCGTCTAAG was tested, and the switch fluorescence ratio was 0.993 ± 0.022.
Sequence GCCGTCTGGC has a switch fluorescence ratio of 1.02 ± 0.045.
GCCGTGGAG showed a switch fluorescence ratio of 1.0133 ± 0.00012.
In the case of GCCGTGGGGC, the switch fluorescence ratio is reported as 0.997 ± 0.061.
Work on GCCGTGTTTT yielded a switch fluorescence ratio of 1.006 ± 0.0018.
GCCGTTACTG gave a switch fluorescence ratio of 1.05 ± 0.031.
GCCGTTATGG was tested, and the switch fluorescence ratio was 1.02 ± 0.053.
GCCTAACACT gave a switch fluorescence ratio of 1.01 ± 0.04.
Work on GCCTAAGGGA yielded a switch fluorescence ratio of 1 ± 0.0063.
GCCTAATTGA showed a switch fluorescence ratio of 0.98434 ± 0.00034.
Work on GCCTACGGCC yielded a switch fluorescence ratio of 1.004 ± 0.0021.
For GCCTAGCATA, the switch fluorescence ratio was 1.02 ± 0.018.
Work on GCCTATGCGG yielded a switch fluorescence ratio of 1.01 ± 0.0033.
With GCCTCAAGTT the switch fluorescence ratio was 1.03 ± 0.052.
GCCTCCCGGG gave a switch fluorescence ratio of 1.136 ± 0.0053.
Sequence GCCTGAAGGG has a switch fluorescence ratio of 1 ± 0.014.
Sequence GCCTGAGGGA has a switch fluorescence ratio of 1.05 ± 0.049.
Work on GCCTGCCGTT yielded a switch fluorescence ratio of 0.996 ± 0.033.
Work on GCCTTAGCGG yielded a switch fluorescence ratio of 1.03 ± 0.048.
GCCTTATTTT gave a switch fluorescence ratio of 1 ± 0.027.
Sequence GCCTTCTGGA has a switch fluorescence ratio of 1.05 ± 0.036.
For GCCTTGCCTT, the switch fluorescence ratio was 1.03 ± 0.013.
In the case of GCCTTTTCTG, the switch fluorescence ratio is reported as 0.962 ± 0.031.
Sequence GCCTTTTTTT has a switch fluorescence ratio of 0.991 ± 0.029.
With GCGAAAAGGG the switch fluorescence ratio was 1.024 ± 0.0069.
Sequence GCGAAACAGG has a switch fluorescence ratio of 1.11 ± 0.06.
In the case of GCGAAAGGGT, the switch fluorescence ratio is reported as 1 ± 0.015.
GCGAACGCGC gave a switch fluorescence ratio of 1.27 ± 0.011.
GCGAATAGTT was tested, and the switch fluorescence ratio was 1.005 ± 0.0067.
GCGAATGATG gave a switch fluorescence ratio of 0.966 ± 0.024.
For GCGAATGCGG, the switch fluorescence ratio was 1.006 ± 0.003.
GCGACAAGAG was tested, and the switch fluorescence ratio was 1.03 ± 0.067.
Sequence GCGACAGGAC has a switch fluorescence ratio of 1.48 ± 0.12.
With GCGACGGGCG the switch fluorescence ratio was 0.972 ± 0.044.
In the case of GCGACTAGGC, the switch fluorescence ratio is reported as 1.03 ± 0.068.
Work on GCGAGAAATC yielded a switch fluorescence ratio of 1.08 ± 0.019.
With GCGAGAACGG the switch fluorescence ratio was 1.01 ± 0.034.
GCGAGATGAT showed a switch fluorescence ratio of 0.977 ± 0.022.
GCGAGCAGTA showed a switch fluorescence ratio of 1.01 ± 0.028.
Sequence GCGAGCCACG has a switch fluorescence ratio of 1.007 ± 0.0076.
For GCGAGCGGGT, the switch fluorescence ratio was 1 ± 0.016.
Work on GCGAGGGATG yielded a switch fluorescence ratio of 1.002 ± 0.0043.
Sequence GCGAGGGTGT has a switch fluorescence ratio of 1.12 ± 0.039.
GCGATACTCG gave a switch fluorescence ratio of 3.56 ± 0.16.
Sequence GCGATCGTTT has a switch fluorescence ratio of 0.992 ± 0.011.
For GCGATGGTCG, the switch fluorescence ratio was 0.937 ± 0.14.
GCGATTATAT gave a switch fluorescence ratio of 0.969 ± 0.049.
GCGATTGGAT showed a switch fluorescence ratio of 1.03 ± 0.0022.
Sequence GCGATTGGGG has a switch fluorescence ratio of 0.9705 ± 0.0044.
GCGATTTATG showed a switch fluorescence ratio of 0.9723 ± 0.0051.
For GCGCAATCTG, the switch fluorescence ratio was 1.98 ± 0.52.
For GCGCATAGGG, the switch fluorescence ratio was 1.04 ± 0.044.
For GCGCATTAGC, the switch fluorescence ratio was 1.3 ± 0.061.
Sequence GCGCGAGTAG has a switch fluorescence ratio of 1.03 ± 0.028.
GCGCGCTAGT gave a switch fluorescence ratio of 1.007 ± 0.0024.
With GCGCGGCTTC the switch fluorescence ratio was 1.03 ± 0.034.
GCGCGTATAT gave a switch fluorescence ratio of 1.07 ± 0.044.
With GCGCGTCAAG the switch fluorescence ratio was 1.012 ± 0.009.
GCGCGTTTTT was tested, and the switch fluorescence ratio was 1 ± 0.016.
For GCGCTAATTT, the switch fluorescence ratio was 1.28 ± 0.59.
Work on GCGCTAGGGC yielded a switch fluorescence ratio of 1 ± 0.014.
GCGCTCGTAC was tested, and the switch fluorescence ratio was 2.27 ± 0.15.
In the case of GCGCTTGAAC, the switch fluorescence ratio is reported as 1.15 ± 0.051.
GCGCTTGAGG was tested, and the switch fluorescence ratio was 1.006 ± 0.0083.
In the case of GCGCTTGGAA, the switch fluorescence ratio is reported as 1.02 ± 0.049.
GCGCTTTTCT showed a switch fluorescence ratio of 0.9784 ± 0.0063.
In the case of GCGGAAAGAA, the switch fluorescence ratio is reported as 0.962 ± 0.02.
GCGGAAAGGA showed a switch fluorescence ratio of 1 ± 0.038.
In the case of GCGGAAAGGG, the switch fluorescence ratio is reported as 0.992 ± 0.021.
Work on GCGGAAGGG yielded a switch fluorescence ratio of 0.996 ± 0.0087.
Sequence GCGGAATAGG has a switch fluorescence ratio of 1.038 ± 0.0062.
Sequence GCGGAATGGG has a switch fluorescence ratio of 1.01 ± 0.019.
In the case of GCGGACAGGA, the switch fluorescence ratio is reported as 1 ± 0.029.
For GCGGAGCATG, the switch fluorescence ratio was 1.1036 ± 0.00099.
In the case of GCGGATGAGA, the switch fluorescence ratio is reported as 1.056 ± 0.0096.
In the case of GCGGATTCGG, the switch fluorescence ratio is reported as 0.9551 ± 0.0048.
Work on GCGGATTGAA yielded a switch fluorescence ratio of 0.988 ± 0.044.
GCGGCCAGGG showed a switch fluorescence ratio of 1.23 ± 0.15.
GCGGCGGGGG gave a switch fluorescence ratio of 0.99 ± 0.031.
Sequence GCGGCTTCGT has a switch fluorescence ratio of 1.02 ± 0.07.
With GCGGGAAAGG the switch fluorescence ratio was 0.978 ± 0.012.
In the case of GCGGGACGTT, the switch fluorescence ratio is reported as 0.96828 ± 0.00072.
GCGGGATACA gave a switch fluorescence ratio of 1.07 ± 0.034.
GCGGGATCCG gave a switch fluorescence ratio of 1.06 ± 0.083.
GCGGGCAGGA was tested, and the switch fluorescence ratio was 1.02 ± 0.021.
GCGGGCGATG showed a switch fluorescence ratio of 0.9902 ± 0.00014.
Sequence GCGGGCGTTG has a switch fluorescence ratio of 0.996 ± 0.053.
With GCGGGCTTCA the switch fluorescence ratio was 1.01 ± 0.025.
Sequence GCGGGGACAA has a switch fluorescence ratio of 1.069 ± 0.0083.
With GCGGGGACAT the switch fluorescence ratio was 0.994 ± 0.013.
In the case of GCGGGGACGG, the switch fluorescence ratio is reported as 1.07 ± 0.034.
Work on GCGGGGCCTT yielded a switch fluorescence ratio of 0.9811 ± 0.004.
Work on GCGGGGCGGG yielded a switch fluorescence ratio of 1.02 ± 0.017.
GCGGGGTACT was tested, and the switch fluorescence ratio was 1.11 ± 0.055.
